According to patent US20240034757A1 (OXFORD UNIVERSITY INNOVATION, published 2024):
Where two headings read alike, the source gives them in different places.

Experiments:
CCL8_HUMAN [1] = target: T1, CCL8_HUMAN (human, UniProt P80075 24-99); assay: yeast surface display FACS
T1 sequence (looked up): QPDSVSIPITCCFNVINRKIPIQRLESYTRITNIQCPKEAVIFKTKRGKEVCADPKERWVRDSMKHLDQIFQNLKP

CCL5_HUMAN [2] = target: T2, CCL5_HUMAN (human, UniProt P13501 24-91); assay: yeast surface display FACS
T2 sequence: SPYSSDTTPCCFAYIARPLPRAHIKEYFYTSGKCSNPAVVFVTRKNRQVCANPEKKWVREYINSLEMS

CCL4_HUMAN = target: T3, CCL4_HUMAN (human, UniProt P13236 24-92); assay: yeast surface display FACS
T3 sequence: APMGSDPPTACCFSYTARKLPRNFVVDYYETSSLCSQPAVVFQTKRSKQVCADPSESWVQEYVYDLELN

CXCL3_HUMAN = target: T4, CXCL3_HUMAN (human, UniProt P19876 35-107); assay: BLI
T4 sequence: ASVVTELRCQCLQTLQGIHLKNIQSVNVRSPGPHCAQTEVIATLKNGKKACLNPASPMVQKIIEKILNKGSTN

CXCL1_HUMAN = target: T5, CXCL1_HUMAN (human, UniProt P09341 35-107); assay: BLI
T5 sequence: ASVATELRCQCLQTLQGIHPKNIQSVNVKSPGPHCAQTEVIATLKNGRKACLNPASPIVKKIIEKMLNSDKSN

CCL17_HUMAN = target: T6, CCL17_HUMAN (human, UniProt Q92583 24-94); assay: yeast surface display FACS
T6 sequence: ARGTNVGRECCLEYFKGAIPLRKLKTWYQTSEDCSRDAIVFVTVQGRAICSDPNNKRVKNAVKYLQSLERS

CCL19_HUMAN = target: T7, CCL19_HUMAN (human, UniProt Q99731 22-98); assay: yeast surface display FACS
T7 sequence: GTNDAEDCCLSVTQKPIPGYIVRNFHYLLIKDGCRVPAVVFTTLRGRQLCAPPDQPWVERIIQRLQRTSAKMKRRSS

CCL3_HUMAN [3] = target: T8, CCL3_HUMAN (human, UniProt P10147 24-92); assay: yeast surface display FACS
T8 sequence: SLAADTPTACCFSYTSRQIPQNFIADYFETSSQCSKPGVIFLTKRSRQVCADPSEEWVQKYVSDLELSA

CCL1_HUMAN [4] = target: T9, CCL1_HUMAN (human, UniProt P22362 24-96); assay: yeast surface display FACS
T9 sequence: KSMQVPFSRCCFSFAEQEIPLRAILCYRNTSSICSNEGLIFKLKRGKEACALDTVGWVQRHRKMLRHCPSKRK

CCL11_HUMAN [5] = target: T10, CCL11_HUMAN (human, UniProt P51671 24-97); assay: yeast surface display FACS
CCL25_HUMAN = target: T11, CCL25_HUMAN (human, UniProt O15444 24-150); assay: yeast surface display FACS
T11 sequence: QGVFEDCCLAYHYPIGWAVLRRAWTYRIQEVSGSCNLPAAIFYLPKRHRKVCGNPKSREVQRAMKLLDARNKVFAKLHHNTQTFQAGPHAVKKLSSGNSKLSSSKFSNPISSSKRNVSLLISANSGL

CCL18_HUMAN [6] = target: T12, CCL18_HUMAN (human, UniProt P55774 21-89); assay: yeast surface display FACS
T12 sequence: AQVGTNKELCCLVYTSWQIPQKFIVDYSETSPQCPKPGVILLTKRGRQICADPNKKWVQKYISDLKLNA

CXCL12_HUMAN = CXCL12_HUMAN (human, UniProt P48061 22-89); assay: yeast surface display FACS
CCL5_HUMAN [7] = target: T2, CCL5_HUMAN; assay: yeast surface display FACS; remark: listed apart in the source
CCL1_HUMAN [8] = target: T9, CCL1_HUMAN; assay: yeast surface display FACS; remark: listed apart in the source
CCL18_HUMAN [9] = target: T12, CCL18_HUMAN; assay: yeast surface display FACS; remark: listed apart in the source
CCL11_HUMAN [10] = target: T10, CCL11_HUMAN; assay: yeast surface display FACS; remark: listed apart in the source
CCL8_HUMAN [11] = target: T1, CCL8_HUMAN; assay: BLI, dose titration
CCL8_HUMAN [12] = target: T1, CCL8_HUMAN; assay: cell-based or functional assay
CCL3_HUMAN [13] = target: T8, CCL3_HUMAN; assay: cell-based or functional assay
CCL8-647 = target: T13, CCL8-647 (human, UniProt P80075 24-99); assay: flow cytometry, inhibition of CCL8-647 binding to THP-1 cells
T13 sequence (looked up): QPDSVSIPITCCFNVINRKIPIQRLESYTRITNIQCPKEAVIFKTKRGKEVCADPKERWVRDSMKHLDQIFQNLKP

CCL2-647 = CCL2-647 (human, UniProt P13500 24-99); assay: flow cytometry, inhibition of CCL2-647 binding to THP-1 cells
CCL8_HUMAN [14] = target: T1, CCL8_HUMAN; assay: cell-based or functional assay; remark: listed apart in the source
CCL15_HUMAN = target: T14, CCL15_HUMAN (human, UniProt Q16663 22-113); assay: yeast surface display FACS
T14 sequence: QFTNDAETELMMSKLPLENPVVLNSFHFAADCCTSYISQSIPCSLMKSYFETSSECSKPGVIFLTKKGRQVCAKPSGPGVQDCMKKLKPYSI

T10 sequence (P51671 24-97 limits assumed): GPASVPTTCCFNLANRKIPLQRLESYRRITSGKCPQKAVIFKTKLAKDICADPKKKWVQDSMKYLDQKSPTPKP
CCL2-647, sequence (P13500 24-99 limits assumed): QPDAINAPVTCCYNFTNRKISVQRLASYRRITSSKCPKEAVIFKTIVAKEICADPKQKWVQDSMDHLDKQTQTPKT
CXCL12_HUMAN, sequence (P48061 22-89 limits assumed): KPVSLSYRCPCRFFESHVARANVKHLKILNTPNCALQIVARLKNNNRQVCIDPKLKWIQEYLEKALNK

B1: P698_RHISA (other)
chain: NEDDSSDYYDASPMNCSSMSVNSTMGWLSMNCTMSCNGTTFPLSNSTHCFHSYTNLTVQSRMETMTYNCSVGTCSNGTCVENGTTTTCW
CCL8_HUMAN [1]
  binding result: binds
CCL5_HUMAN [2]
  binding result: binds

B2: P1014_AMBCA (other)
chain: DIIGGIPGCGDPTTTSAPEVPPKHFAVRTDKDGCTLMIIGTWMTTEDHNRLPPDIGEKRAPYGRVQLPASCKKNCHGKVKNLPNGTPCREVFGDPRRGRKHIKNGCTVGKCQSGLCVTDKRIISCYIPPNITDPIPTHGPWAE
CCL4_HUMAN
  binding result: binds

B3: P943_IXORI (other)
chain: RSKQPTASQSSKNSIKAEFCDTNCTQGTNGAWSGCSEGCFCVHVGNNTKGRCMKLSSDYDYTTQ
CXCL3_HUMAN
  Kd: 270 nM
CXCL1_HUMAN
  Kd: 540 nM

B4: P1005_AMBMA (other)
chain: EKDTPKNIPGCGDTGTTAAPPADNPKHFAVYTDKHGCTIKVIGTWMTKEDHSRLPVSLRRVRASSGRVMLPASCQKICNDTVKNFPEGTPCRLVTGDPIKGKNHIKDGCIRGYCSSGVCVSDKRNISCYVPPN
CCL17_HUMAN
  binding result: binds
CCL19_HUMAN
  binding result: binds
CCL5_HUMAN [2]
  binding result: binds
CCL3_HUMAN [3]
  binding result: binds
CCL1_HUMAN [4]
  binding result: binds
CCL11_HUMAN [5]
  binding result: binds

B5: P1011_AMBTR (other)
chain: EKDTPKNIPGCEDAGTTAAPPADNPKHYAVYTDKNGCTFKVIGTWMTKEDHRRLPVSLRRVRASSGRVKLPASCQKICKHSVKKFPEGTPCRLVTRDPIKGKNHIKNGCIRGYCSSGVCVSDNRSISCYVLPNNTELTSPSGSFAE
CCL17_HUMAN
  binding result: binds
CCL25_HUMAN
  binding result: binds
CCL5_HUMAN [2]
  binding result: binds
CCL18_HUMAN [6]
  binding result: binds
CCL11_HUMAN [5]
  binding result: binds

B6: P1209_AMBPA (other)
chain: KTDTKNAAGELPPKVAIPGCEDPATTKAPLPDDPRYYGVTIDKDGCQRKVLGSSQRQQRQVQNGRKPGRKGRGRRPVFVDLKLTVDCKRKCNGTYSQLPDGEPCLVCDGEPYGRHRTIKGGCYQGNCSSGQCHRGERKVNCYIPKNITNNVLNSVNLAE
CXCL12_HUMAN
  binding result: binds
CCL5_HUMAN [7]
  binding result: binds
CCL1_HUMAN [8]
  binding result: binds
CCL18_HUMAN [9]
  binding result: binds
CCL11_HUMAN [10]
  binding result: binds

B7: EVA1(P672 22-32) hybrid protein (designed binder)
chain: EDDEDYEDFFKPVTCYFLVAENKTGYPTIVACKQDCNGTTETAPNGTRCFSIGDEGLRRMTANLPYDCPLGQCSNGDCIPKETYEVCYRRNWRDKKN
CCL8_HUMAN [11]
  Kd: 490 nM

B8: P672_RHIPU (other)
chain: VCEVSEQEGVGEDNATEDEDYEDFFKPVTCYFANSTVGPLRPPNCTVVCTNNTAWWNDTKSDGGHCYSEYRPEKRTHSREIYNCTIGVCGNGTCIANHTYADCW
CCL8_HUMAN [12]
  IC50, THP1 cell migration: 2.37 nM
CCL3_HUMAN [13]
  IC50, THP1 cell migration: 5.74 nM
CCL8-647
  IC50: 21 nM
CCL2-647
  IC50: 21 nM
CCL8_HUMAN [14]
  IC50, CCL8 induced THP-1 cell migration: 3 nM

B9: P1006_AMBCA (other)
chain: DTIGGIPGCGDPATTSAPEDQPKHYAVRTDKNGCKVMVIGTWMTKEDHNLLPPYISKERAPSGKVQLPASCKKNCHGKLKNLPNGTPCREVFGDLRRRRKHIKDGCKVGKCQNGLCVSEERIISCYLPPNITDPRPTHGPLAE
CCL25_HUMAN
  binding result: binds
CCL19_HUMAN
  binding result: binds
CCL15_HUMAN
  binding result: binds
CCL5_HUMAN [2]
  binding result: binds
